Experimental data taken from article PMC8982573 (EMBO Reports, 2022).

Target: SARS-CoV-2 spike receptor-binding domain fused to Venus YFP (RBD-vYFP) (SARS-CoV-2, UniProt P0DTC2 330-526, chemically biotinylated using NHS-Biotin)
Assay: grating-coupled interferometry (GCI)
Details: both partners purified

B1: Sybody Sb#15 (VHH)
VHH: QVQLVESGGGLVQAGGSLRLSCAASGFPVKNFEMEWYRKAPGKEREWVAAIQSGGVETYYADSVKGRFTISRDNAKNTVYLQMNSLKPEDTAVYYCFVYVGRSYIGQGTQVTVS
notes: also called Sb#y15; source: E. coli MC1061, periplasm, purified (Ni-NTA, SEC)
Question: For B1, which Kd is on record?
Answer: 0.0144 µM
